The values below come from the nanobody polyreactivity screen of Harvey et al. (2022).

The data set can be described thus: yeast display, Sf9 membrane polyspecificity reagent, FACS + sequencing; frameworks hold sequencing errors. The essentials: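 Polyreactivity labels are assigned by the sorting gate from which each nanobody was recovered. The gates were low and high (top ~1%), set on anti-HA fluorescence for expression and streptavidin fluorescence for reagent binding. Before sorting, galactose-induced (36–48 hours) yeast display cells were stained for 1 hour at 4 °C with 10% biotinylated, detergent-solubilized Sf9 membrane reagent.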
In the case of “QVQLVESGGGLVQAGGSLRLSCAASGITFKVYAMGWYRQAPRKEREFVAAITYSGGRTYYADSVKGRFTISRDNAKNTVYLQMNSLQPEDTAVYYCAKEYGIYTDTPYYYWGQGTQVTVSS”, the “polyreactivity (PSR sort gate)” value is on record as “low polyreactivity”.
Turning to “QVQLVESGGGLVQAGGSLRLSCAASGITFKWYAMGWYRQAPGKERELVAAISWSTGSTYYADSVKGRFTISRDNAKNTVYLQMNSLKPEDTSVYYCAARVKRPQTGYDRRYGYWGQGTQVTVSS”, the “polyreactivity (PSR sort gate)” value is given as “high polyreactivity”.
As for “QVQLVESGGGLVQAGGSLRLSCAASGITFKYYAMGWYRQAPGKERELVAAINWSGDRTYYADSVKGRFTISRDNAKNTVYLQMNSLKPEDTAVYYCAATAWPGRYWRQEVDYWGQGTQVTVSS”, the entry is “high polyreactivity”; as for “QVQLVESGGGLVQAGGSLRLSCAASGITFLDYAMGWYRQAPGKERELVADISTSGGSTYYADSVKGRFTISRDNAKNTVYLQMNSLKPEDTAVYYCAADTFDFWWSLGSMDYWGQGTQVTVSS”, “high polyreactivity”; as for “QVQLVESGGGLVQAGGSLRLSCAASGITFLFYAMGWYIPAPGKEREYVAAISTRGGRTYYADSVKGRFTISRDNAKNTVYLQMNSLKPEDTAVYYCAADFYYRTVATVTSVARYDYWGQGTQVTVSS”, “high polyreactivity”.
As for “QVQLVESGGGLVQAGGSLRLSCAASGITFLFYARGWYRKAPGKERELVAAISSGDNTYYADSVKGRFTISRDNGKNTVYLQMKSLKPDDTAVYYCAAEKYGYDYWGQGTQVTVSS”, the entry is “low polyreactivity”; as for “QVQLVESGGGLVQAGGSLRLSCAASGITFLGYVMGWYRQAPGKEREFVADITESGGRTYYADSVKGRFTISRDNAKNTVYLQMNSLKPEDTAVYYCAAELSYWGYYYSFDYWGQGTQVTVSS”, “low polyreactivity”; as for “QVQLVESGGGLVQAGGSLRLSCAASGITFLHYALGWYRQAPGKERELDAAISVRGGITYYADSVKGRFTISRDNAKNTVYLQMHSLKPEDTAVFYCAADRPKFYNSIYDYWGQGTQVTVSS”, “low polyreactivity”.
“QVQLVESGGGLVQAGGSLRLSCAASGITFLKNAMGWYRQAPGKERELVAAISSSGGSTYYADSVKGRFTISRDNAKNTVYLQMNSLKPEDTAVYFCAARIYWYTPGRRGYTYDYWGQGTQVTVSS”: the “polyreactivity (PSR sort gate)” value is “high polyreactivity”.
For “QVQLVESGGGLVQAGGSLRLSCAASGITFLNYAMGWYRQAPGKERELVAAISWSGGRTYYADSVKGRFTISRDKGKNTVYLQMNSLKPEDTAVYYCAADRGVNSYGYWGQGTQVTVSS”, the “polyreactivity (PSR sort gate)” value was “high polyreactivity”.
On to “QVQLVESGGGLVQAGGSLRLSCAASGITFLPYAMGWYRPAPGKERELVAAITRGGGSTYADSVKGRFTISRDNAKNTVYLQMNSLKPEDTAVYYCAKRYGRVSWYEDYDYWGQGTQVTVSS”, for which the “polyreactivity (PSR sort gate)” value was “low polyreactivity”.
Consider “QVQLVESGGGLVQAGGSLRLSCAASGITFLPYTMGWYRQAPGKERELVATISWNGGSTYYADSVKGRFTISRDNAKNTVYLQMNSLKPEDTAVYYCAARQVQAPRSIGFYYWGQGTQVTVSS”, for which the “polyreactivity (PSR sort gate)” value is listed as “high polyreactivity”.
In the case of “QVQLVESGGGLVQAGGSLRLSCAASGITFLYYAMGRYRPAPGKERELVAAITGDGSTTYADSVKGRFTISRDNAKNTVYLQMNSLKPEDTAGYYCAADDQYYGDGFWGQGTQLTVSS” it was “high polyreactivity”; in that of “QVQLVESGGGLVQAGGSLRLSCAASGITFNAYAMGWYRQAPGKERELVAAITSSGSSTYYADSVKGRFTISRDYAKNTVYLQMNSLKPDDTAVYYCAATRGTKFYWGQGTQVTVSS”, “high polyreactivity”.
As for “QVQLVESGGGLVQAGGSLRLSCAASGITFNGYAMGWYRQAPGKERELVAAISSSGGRTRYADSVKGRFTISRDNAKNTVYLQMNSLKPEDTAVYYCNARGYGQSNYWGQGTQVTVSS”, the entry is “high polyreactivity”.
For “QVQLVESGGGLVQAGGSLRLSCAASGITFNKYAMGWYRQAPGKERELVAAISSRGGSTYYADSVKGRFTISRDNAKNTVYLQMNSLKPEDTAVYYCNADFYRASSNFDYWGQGTQVSVSS”, the “polyreactivity (PSR sort gate)” value is given as “high polyreactivity”.
As for “QVQLVESGGGLVQAGGSLRLSCAASGITFNKYAMGWYRQAPGKERELVAAISSRGGSTYYADSVKGRFTISRDNAKNTVYLQMNSLKPEDTAVYYCNADVYRASNFDYWGQGTQVTVSS”, the entry is “high polyreactivity”; as for “QVQLVESGGGLVQAGGSLRLSCAASGITFNLNDMGWYRQAPGKERELVAAITSGGNTSYADSVKGRFTISRDNAKNTVDLQMNSLKPEDTAVYYCATEDFRTDTGMYYWGQGTQVTVSS”, “low polyreactivity”; as for “QVQLVESGGGLVQAGGSLRLSCAASGITFNLYAMGWYRQAPGKERELVAGITGGGSTYYADSVKGRFTISRDNAKNTVYLQMNSLTPEDTAVYYSTARRLGARYRGYYWGQGTQVTVSS”, “high polyreactivity”.
On to “QVQLVESGGGLVQAGGSLRLSCAASGITFNRYALGWYRQAPGKERELVASIRWSGGSTNYADSVKGRFTISRDNGKNTVYLQMKSLKPEDTAVYYCNAGRESDDVYEGSQRIGQFDYWGQGTQVTVSS”, for which the “polyreactivity (PSR sort gate)” value is “low polyreactivity”.
In the case of “QVQLVESGGGLVQAGGSLRLSCAASGITFNRYAMGWYRQAPGKERELVAGISRGVSTYYADSVKGRFTISRDNAKNTVYLQMKSLKPEDTAVYYCAAKPVVRYVSFGYDYWGQGTQVTVSS” it was “high polyreactivity”; in that of “QVQLVESGGGLVQAGGSLRLSCAASGITFNSNAMGWYRQAPGKERELVATISNGGSTNYADSVKGRFTISRDNAKNTVYLQMNSLKPEDTAVYDCNTRRGSLSGLYVYSIQGYDYWGQGTQVTVSS”, “low polyreactivity”.
As for “QVQLVESGGGLVQAGGSLRLSCAASGITFNSYVMGWYRQAPGKERELVAAIRWSGGRTYYADSVKGRFTISRDNAKNTVYLQMNSLKPEDTAVYYCNRVTRSHVDYWGQGTQVTVSS”, the entry is “high polyreactivity”; as for “QVQLVESGGGLVQAGGSLRLSCAASGITFNTDTMGWYRQAPGKEWELVAAITLSGAGTYYADSVKGRFTISRDNAKNTVYLQMNSLKPEDTAVYYCAAYLSENRWPYVRYDYWGQGTQVTVSS”, “high polyreactivity”; as for “QVQLVESGGGLVQAGGSLRLSCAASGITFNYYVMGWYRQAPGKERELVAAIRRGGSTNYADSVKGRFTISRDNAKNPVYLQMNSLKPEDTAVYYCAARTYRGLAYDYWGQGTQVTVSS”, “high polyreactivity”.
As for “QVQLVESGGGLVQAGGSLRLSCAASGITFPANAMGWYRQAPGKERELVAAISSSGGSTYYADSVKGRFTISRDNAKNTVYLQMNSLKPEDTAVYYCAAYYGPSRSLYYYWGQGTQVTVSS”, the entry is “high polyreactivity”; as for “QVQLVESGGGLVQAGGSLRLSCAASGITFPFYAMGWYRQAPGKERELVAAISWSDVDTYYADSVKGRFTISRDNAKNTVYLQMNSLKPEDTAVYYCAVSGVHPYWSDYEYWGQGTQVTVSS”, “low polyreactivity”; as for “QVQLVESGGGLVQAGGSLRLSCAASGITFPGNAMGWYRQAPGKERDLVAVISSGTSTNYADSVKGRFTISRDNAKNTVYLHMNSLKPEDTAVYYCAKATSSFYHYRYDYWGQGTQVTVSS”, “low polyreactivity”.
On to “QVQLVESGGGLVQAGGSLRLSCAASGITFPLYAMGWYRQAPGKERELVATISGRGGSTYYADSVKGRFTISRDNAKNTVYLQMNSLKPEDTEVYYCNADFRSPYFLLSWYHSGDYWGQGTQVTVSS”, for which the “polyreactivity (PSR sort gate)” value is “low polyreactivity”.
As for “QVQLVESGGGLVQAGGSLRLSCAASGITFPQNAMGWYRQAPGKERELVATIDNVGSTNYADSVKGRFTISRDNAKNTVYLQMNSLKPEDTAGYYCAKDYDWTLDYDGYPGYDYWGQGTQVTVSS”, the entry is “high polyreactivity”; as for “QVQLVESGGGLVQAGGSLRLSCAASGITFPRYAMGWYRQAPGKERELVARISWGGGRTYYADSVKGRFTISRDNAKNTVYLPMNSLKPEDTAVYYSAARTWADPYGYWGQGTQVTVSS”, “high polyreactivity”; as for “QVQLVESGGGLVQAGGSLRLSCAASGITFPSYAMGWYRQAPGKEWELVATISRGDSTYYADSVKGRFTISRDNAKNTVYLQMNSLKPEDTAVYYCNARWWFQLYYYSTFAGYNYWGQGTQVTVSS”, “low polyreactivity”.
With “QVQLVESGGGLVQAGGSLRLSCAASGITFPYYAMGWSRQAPGKERELVAAISSSGGSTYYADSVKGRFTISRDNAKNTVYLQLNSLKPEDTAVYYCAAQRYINYDYWGQGTQVTVSS”, the “polyreactivity (PSR sort gate)” value is recorded as “high polyreactivity”.
In the case of “QVQLVESGGGLVQAGGSLRLSCAASGITFQANAMGWYRQAPGKERELVAAISSSDGSTYYADSVKGRFTISRDNAKNTVYLQMNSLKPEDTAVYYCNVDYAQRVFLYDYWGQGTQVTVSS” it was “low polyreactivity”; in that of “QVQLVESGGGLVQAGGSLRLSCAASGITFQGYTMGWYRQAPGKEWELVAAISSNGGRTYYADSVKGRFTISRDNAKNTVYLQMNSLKPEDTAVYYCAARSFWTYRSGGPSDYYYWGQGTQVTVSS”, “high polyreactivity”; in that of “QVQLVESGGGLVQAGGSLRLSCAASGITFQSNTMGCYRQAPGKERELVAAITWTGGRTYYADSVKGRFTISRDNAKNTVYLQMNSLKPEDTAVYYCNADGYAIGYNGKLDYWGQGTQVTVSS”, “high polyreactivity”.
As for “QVQLVESGGGLVQAGGSLRLSCAASGITFQWYAMGWYRQAPGKERELVAGISSGGSTYYADSVKGRFTISRDNAKNTVYLQMNSLKPEDTAVYYCAADYGWYSPFYPSYKYEYWGQGTQVTVSS”, the entry is “low polyreactivity”; as for “QVQLVESGGGLVQAGGSLRLSCAASGITFRFNAMGWYRQAPGKEREFVAAITYSGDSTYYADSVKGRFTISRDNAKNTVYLQKNSLKPEDTAVYYCAADYYAISRRIFYYWGQGTQVTVSS”, “low polyreactivity”; as for “QVQLVESGGGLVQAGGSLRLSCAASGITFRGYTMGWYRQAPGKERELVARIRSSDGSTYYADSVKGRFTISRDNAKNTVYLQMNSLKPEDTAVYYCNADRRGRALKYYSWGQGTQVTVSS”, “low polyreactivity”.
Regarding “QVQLVESGGGLVQAGGSLRLSCAASGITFRKYAMGWYRKAPGKERELVAAISVSGGSTYYADSVKGRFTISRDNAKNTVYLQMNSLKPEDTAVYYCATGRSTDKGYYYWGQGTQVTVSS”, the “polyreactivity (PSR sort gate)” value is “high polyreactivity”.
